The text below walks through data of article PMC5577252.

This assay concerns the target PSII-LHCII supercomplexes of sucrose gradient band α3 (α3G with glutaraldehyde) (pea (Pisum sativum L., endogenous in leaves)) (UniProt P06585).

For the substance “PSII-LHCII supercomplexes of sucrose gradient band α3 (α3G with glutaraldehyde) (from UniProt P06585 1-344; P06006 1-353; P06004 15-473; P14226 82-329; P27520 38-265)”, the fast chlorophyll a fluorescence induction (OJIP), O–J curvature parameter C; control (sucrose gradient buffer with cations, paired) amounted to 0.35; the fast chlorophyll a fluorescence induction (OJIP), O–J curvature parameter C; no salts (salt-free buffer, unpaired) came out at 0.14; the fast chlorophyll a fluorescence induction (OJIP), connectivity among PSII units parameter p; control (sucrose gradient buffer with cations, paired) is 0.3; the fast chlorophyll a fluorescence induction (OJIP), connectivity among PSII units parameter p; no salts (salt-free buffer, unpaired) is 0.13. Besides, the fast chlorophyll a fluorescence induction (OJIP), overall grouping probability p2G; control (sucrose gradient buffer with cations, paired) came to 0.21; the fast chlorophyll a fluorescence induction (OJIP), overall grouping probability p2G; no salts (salt-free buffer, unpaired) was found to be 0.15; the fast chlorophyll a fluorescence induction (OJIP), probability of connectivity between PSII units ω; control (sucrose gradient buffer with cations, paired) was 0.2; the fast chlorophyll a fluorescence induction (OJIP), probability of connectivity between PSII units ω; no salts (salt-free buffer, unpaired) came out at 0.06.
